# Values quoted from earlier work, collected in patent US9233143B2, “Medicinal agent for preventing exacerbation of malignant tumor, comprising combination of natriuretic peptide receptor GC-A and GC-B agonists” (National Cerebral and Cardiovascular Center, priority 2011, dated 2016).
# Bridge positions count the residues as written; N and C are the ends. Ends that are not written are not given here.
# Target: T1, natriuretic peptide receptor GC-B (Homo sapiens, UniProt P20594)
# T1 sequence (P20594 23-1047): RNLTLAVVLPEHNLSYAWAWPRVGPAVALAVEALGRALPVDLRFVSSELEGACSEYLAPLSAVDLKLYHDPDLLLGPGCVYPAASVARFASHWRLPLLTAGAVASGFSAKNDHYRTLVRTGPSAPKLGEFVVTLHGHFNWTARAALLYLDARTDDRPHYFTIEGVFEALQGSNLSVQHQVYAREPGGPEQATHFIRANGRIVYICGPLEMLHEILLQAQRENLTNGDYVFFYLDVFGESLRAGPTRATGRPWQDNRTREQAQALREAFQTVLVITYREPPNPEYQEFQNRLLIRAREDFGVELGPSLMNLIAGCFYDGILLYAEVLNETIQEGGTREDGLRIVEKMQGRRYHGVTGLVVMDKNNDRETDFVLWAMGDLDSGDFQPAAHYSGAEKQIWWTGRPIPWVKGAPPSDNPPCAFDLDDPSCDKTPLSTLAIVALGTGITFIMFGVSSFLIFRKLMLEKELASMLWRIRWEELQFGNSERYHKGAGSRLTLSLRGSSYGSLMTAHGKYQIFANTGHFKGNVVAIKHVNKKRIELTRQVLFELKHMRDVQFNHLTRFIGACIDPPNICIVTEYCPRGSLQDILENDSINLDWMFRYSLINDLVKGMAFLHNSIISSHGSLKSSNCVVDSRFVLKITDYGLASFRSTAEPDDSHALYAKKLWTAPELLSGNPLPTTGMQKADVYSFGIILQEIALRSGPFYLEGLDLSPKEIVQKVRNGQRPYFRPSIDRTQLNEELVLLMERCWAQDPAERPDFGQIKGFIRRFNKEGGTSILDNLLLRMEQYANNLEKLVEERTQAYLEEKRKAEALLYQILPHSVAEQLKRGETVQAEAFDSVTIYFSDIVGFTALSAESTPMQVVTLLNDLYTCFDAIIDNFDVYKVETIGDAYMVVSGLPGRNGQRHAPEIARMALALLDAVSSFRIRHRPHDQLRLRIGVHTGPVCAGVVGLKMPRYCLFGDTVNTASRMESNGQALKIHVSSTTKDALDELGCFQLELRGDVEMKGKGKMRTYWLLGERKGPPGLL
# Conditions: literature reports; cited from earlier work
substance,measurement,value
hCNP6-22: a peptide consisting of amino acids from position 6 to position 22 of SEQ ID NO: 7 (only the ring structure) (CFGLKLDRIGSMSGLGC; disulfide 1-17 (inferred); listed as Homo sapiens),GC-B agonist activity,comparable to that of hCNP-22
